The values that follow are results of earlier work, collected in article PMC4041007.

pKd: −log10 of the molar value.

The target in one data set is LLT1 (Homo sapiens) (UniProt Q9UHP7).
For another data set, the target named is KACL (Homo sapiens) (UniProt Q6UVW9).
Chain of UniProt Q6UVW9 (Q6UVW9 whole entry): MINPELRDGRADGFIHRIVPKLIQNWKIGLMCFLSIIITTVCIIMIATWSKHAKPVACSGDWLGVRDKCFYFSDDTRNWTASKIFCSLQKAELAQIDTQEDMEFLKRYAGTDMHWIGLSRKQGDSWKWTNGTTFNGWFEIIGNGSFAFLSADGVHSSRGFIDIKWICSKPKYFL

Chain of UniProt Q9UHP7 (Q9UHP7 whole entry): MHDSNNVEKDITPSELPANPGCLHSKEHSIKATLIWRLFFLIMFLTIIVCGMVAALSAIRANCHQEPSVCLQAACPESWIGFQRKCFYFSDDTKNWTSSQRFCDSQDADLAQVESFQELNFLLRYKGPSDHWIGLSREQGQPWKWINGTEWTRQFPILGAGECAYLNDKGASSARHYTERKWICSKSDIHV

Usually pKd stands for the Kd on a negative log10 scale, so that one unit is a factor of ten. As to NKR-P1A (from UniProt Q12918), the pKd with LLT1 (Homo sapiens) is 4.30. For the substance NKp65 (from UniProt D3W0D1), in the data set with KACL (Homo sapiens), the pKd was 8.70.
